Assay results from US5705154, “Humanized monoclonal antibodies against human interleukin-4” (Schering Corporation, dated 1998).
Where “and” joins values, the source holds several entries; their conditions need not be identical. Equal values may be shown once.

Key:
human interleukin-4 [1] = target: T1, human interleukin-4 (human, UniProt P05112, radioiodinated (125I, IODOGEN method) in the binding and competition assays; unlabelled in the reporter gene assay)
human interleukin-4 [2] = target: T1, human interleukin-4; experiment: inhibition of 125I-hIL-4 binding to the human IL-4 receptor on Jijoye CJ cells, 4 C
Experimental: The humanized antibodies were assayed for the ability to inhibit the binding of radiolabelled hIL-4 to the recombinant human IL-4 receptor expressed on Jijoye CJ cells in microtiter plates. Briefly, the humanized antibodies were serially diluted in cell growth medium at protein concentrations of from 8.6 nM to 4 pM. Rat antibody 25D2 was similarly diluted and used as a positive control. Jijoye CJ cells (10^5 cells) and 44 pM ^125I-hIL-4 were then added to each well (200 μl final volume per well) and the plates were incubated for 2 hours at 4° C.
Humanized antibodies h25D2-1 and h25D2-4 antibodies were assayed as described above for the ability to inhibit binding of radiolabeled hIL-4 to recombinant hIL-4 receptors expressed on the Jijoye CJ cell line.

human interleukin-4 [3] = target: T1, human interleukin-4; experiment: apparent Kd, Scatchard analysis; purified antibody captured on anti-rat IgG Fc plates, 125I-hIL-4, room temperature
human interleukin-4 [4] = target: T1, human interleukin-4; remark: listed apart in the source
human interleukin-4 [5] = target: T1, human interleukin-4; experiment: plate competition assay at room temperature; free antibody against immobilized 25D2 as competitor for 125I-hIL-4
Experimental: (§1) Immunosorb plates were coated with a 60 ng/ml solution of the rat 25D2 antibody diluted in PBS (100 μl/well) for at least 16 hours at 4° C. The wells were then blocked with Blocking buffer (3% BSA in PBS) for 4 hours at room temperature. Fifty microliters of 2-fold serially diluted competing antibodies plus the appropriate amount of ^125I-hIL-4 ([…] total volume) were added to each well, and the plates were incubated at room temperature for 16–24 hours. The plates were washed 3 times with potassium phosphate, pH 7.4, plus 0.05% Tween 20. The wells were aspirated dry, and 75 μl of Solubilization buffer (0.1N NaOH/1% SDS) was added to each well and incubated for 30 minutes at room temperature. The solution was removed from each well and counted in an LKB gamma counter.
To further characterize humanized antibody variants h25D2-1 and h25D2-4, competitive binding assays with the humanized antibodies and rat antibody 25D2 were performed as described above.

human interleukin-4 [6] = target: T1, human interleukin-4; experiment: plate competition assay at room temperature (about 22 C); free antibody against immobilized 25D2 as competitor for 125I-hIL-4
Experimental: as §1
A plate competition assay was carried out as described above using ^125I-hIL-4, immobilized rat antibody 25D2, and varying levels of free antibodies 25D2, h25D2-1 or h25D2-9.

human interleukin-4 [7] = target: T1, human interleukin-4; experiment: apparent Kd, Scatchard analysis; antibody from COS conditioned medium captured on anti-human IgG4 Fc plates, 125I-hIL-4, room temperature
Experimental: The wells were washed and incubated with ^125I-hIL-4 at concentrations between 4,000 and 2 pM in final volumes of 100 μl. All assays were performed in triplicate, and the background binding was determined by using a 1000-fold molar excess of unlabelled hIL4 in control wells. After incubation for 2 hours at room temperature, the wells were washed, the protein was solubilized in 75 μl of Solubilization buffer [0.1N NaOH/1% sodium dodecylsulfate (SDS)], and the solution was counted in an LKB gamma counter. Concentrations of bound and free hIL4 were determined, and the affinities of the antibodies were determined by Scatchard plot analysis [Berzofsky et al., in *Fundamental Immunology*, 1984, Paul, E. E., Ed., Raven Press, N.Y., N.Y., pp. 595–644].
All five variants of the humanized heavy chain gene were independently co-transfected into COS 7 cells with the pKM20 light chain vector. The serum-free conditioned medium was harvested after 72 hours and concentrated.

Row | IC50, inhibition of human growth hormone expression under the germline epsilon promoter in Jijoye C12 cells with 1 ng/mL hIL-4 (human interleukin-4 [1]) [nM] | IC50 (human interleukin-4 [2]) | Kd (human interleukin-4 [3]) [nM] | concentration for fifty percent inhibition in the germline epsilon reporter assay, Jijoye C12 cells (FIG. 3), against 25D2 and h25D2-9 (human interleukin-4 [4]) [fold] | fold less effective than antibody 25D2 in competition (human interleukin-4 [5]) [fold] | concentration for fifty percent inhibition relative to antibody h25D2-9 (human interleukin-4 [6]) [fold] | Kd (human interleukin-4 [7]) [nM] | Binder
1 | 0.02 to 0.04 | 0.5 to 1 nM and 1 nM | 1 |  |  |  |  | rat monoclonal antibody 25D2 (antibody, V domains shown) VH: ELQLVESGGGLVQPGRSLKLSCVASGFSFRSYWMTWVRQAPGKGLEWIASISISGDNTYYPDSVRGRFTISRDDAKSILYLQMNSLRSEDTATYYCVRDPYYFSGHYFDFWGQGVMVTVSS VL: DIQMTQSPSLLSASVGDRVTLNCKASQNIYKNLAWYQQKLGEAPKFLIFNAKSLETGVPSRFSGSGSGTDFTLTISSLQPEDVATYFCQQYYSGWTFGGGTKLELKR
2 | 0.12 | 0.5 nM and 1 nM |  | 5 | 3 | 2 | 4 | humanized antibody h25D2-1 (antibody, V domains shown) VH: EVQLLESGGGLVQPGGSLRLSCAASGFSFRSYWMTWVRQAPGKGLEWVASISISGDNTYYPDSVRGRFTISRNDSKNTLYLQMNGLQAEVSAIYYCARDPYYFSGHYFDFWGQGTLVTVSS VL: DIQMTQSPSSLSVSVGDRVTITCKASQNIYKNLAWYQQKPGLAPKLLIYNAKSLETGVPSRFSGSGSGTDFTFTISSLQPEDIATYYCQQYYSGWTFGQGTKVEVKR
